Source: the nanobody polyreactivity screen of Harvey et al. (2022)

Assay: yeast display, Sf9 membrane polyspecificity reagent, FACS + sequencing; frameworks hold sequencing errors
Method in brief: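 Galactose induction of a Saccharomyces cerevisiae BJ5465 synthetic nanobody display library ran 36–48 hours. The cells were then stained for 1 hour at 4 °C with 10% biotinylated, detergent-solubilized Sf9 membrane reagent, pulled down on streptavidin microbeads and FACS-sorted into low and high (top ~1%) gates on expression and reagent-binding fluorescence. Labels for polyreactivity follow the gate of origin.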

Row | Sequence | polyreactivity (PSR sort gate)
1 | QVQLVESGGGLVQAGGSLRLSCDASGRSFYPYSMGWYRQAPGKERELVAAIDWSDGSTYYADSVKGRFTISRDNAKNTFYLQMNSLKPEDTAVYYCSAEDYNYWSYDYWGQGTQVTVSS | low polyreactivity
2 | QVQLVESGGGLVQAGGSLRLSCDASGRTFVVNAMGWYRQAPGKERELVAAITRRGGITYYADSVKGRFTISRDNAKNTVYLQMNSLKPEDTAVYYCAADRSYYPDTRTTYGYNYWGQGTQVTVSS | low polyreactivity
3 | QVQLVESGGGLVQAGGSLRLSCDASGRTFYFYVMGWYRQAPGKERELVARISWSGGSTYYADSVKGRFTISRDNAKNTVYLQMNSLKPEDTAVYYCARQYKYPSSGEYDSWGQGTQVTVSS | low polyreactivity
4 | QVQLVESGGGLVQAGGSLRLSCDASGSIFAKNAMGWYRQAPGKERELVAAIDLNGGSTYYADSVKGRFTISRDTAKNTVYLQMNILKPEDTAVYYCDVYYGHSCVIRSSPEYDSWGQGTQVTVSS | low polyreactivity
5 | QVQLVESGGGLVQAGGSLRLSCDASGSIFGRNAMGWYRQAPGKERELVAAISWRGGRTYYADSVKGRFTISRDNAKNTVYLQMNSLKPEDTAVYYCAATSGRPYEYGYWGQGTQVTVSS | high polyreactivity
6 | QVQLVESGGGLVQAGGSLRLSCDASGSIFLVYAMGWYRQAPGKERELVAAITSGGSTNYADSVKGRFTISRDNAKNTVYFQMNSLKPEDTAVYNCAAERGDTAYRKYDYWGQGTQVTVSS | low polyreactivity
7 | QVQLVESGGGLVQAGGSLRLSCDASGSIFMYNAMGWYRQAPGKERELVAAISSSSDRTYYADSVKGRFTISRDNAKKTVYLQMNSLKPEDTAVYYCNVVYIGWRKYEYWGQGTQVTVSS | high polyreactivity
8 | QVQLVESGGGLVQAGGSLRLSCDASGSIFRAYAMRWYRQAPGKERELVAAISSSSGRTYYADSVKGRFTISRDNAKTTVYLQLNSLKPEDTAVYYCAVTASTLVTSATYDYWGQGTQVTLSS | low polyreactivity
9 | QVQLVESGGGLVQAGGSLRLSCDASGSIFRLYAMGWYRQAPGKERELVARITRRCGDTYADSVKGRFTISRDNAKNTVYLQMNSLKREDTAVYYCAADGYHRYPGSSGYGYWGQGTQVTVSS | high polyreactivity
10 | QVQLVESGGGLVQAGGSLRLSCDASGSIFYGYTMGWYRQDPGKERELVAAIRKSGGSTNYADSVKGRFTISRDNAKNTVYLQMNSLKPEDTAVYYCAASYYRGRGYYWGQGTQVTVSS | high polyreactivity
11 | QVQLVESGGGLVQAGGSLRLSCDASGSIFYSKAMGWYRQAHGKERELVAAITVGGGRTYYADSVKGRFTISRDNAKNTVYLQMNSLNPEDTAVYYCAADSHASTYDYWGQGTQVTVSS | low polyreactivity
12 | QVQLVESGGGLVQAGGSLRLSCDASGSIVRYNAMGWYRQAPGKERELVADISTSGGSTYYADSVKGRFTISRDNANNTVYVQMNSLKPEDTAVYYCAKPWYSSGFDYWGQGTQVTVSS | high polyreactivity
13 | QVQLVESGGGLVQAGGSLRLSCDASGSIYRLNAMGWYRQAPGKEMELVAAITWSDSSTYYADSVKGRFTISRDNAKYTVYLQMNSLKPEDTAVYYCAADPQSYKYDYWGQGTQVTVSS | low polyreactivity
14 | QVQLVESGGGLVQAGGSLRLSCDASGSTFDVNTMGWYRQAPGKERELVAAIRLRGGSTYYADSVKGRFTISRDNAKNTVYLLMISLKPEDTAVYYCAADYTLIYDYCGQGTQVTVSS | low polyreactivity
15 | QVQLVESGGGLVQAGGSLRLSCDASGSTFFANAMGWYRQAPGKERELVAAITIGNTNYADSVKGRFTISRDNAKYTVYLQMNSLKPEDTAVYYCNASHVSHYRARDYWGQGTQVTVSS | low polyreactivity
16 | QVQLVESGGGLVQAGGSLRLSCDASGSTFFTYAMGWYRQSPGKERELVAAITRGGSTYYADSVKGRFTISRDNAKHTVYLQMNSLKPEDTAVYYCNVDPFTRQNHGNYWGQGTQVTVSS | high polyreactivity
17 | QVQLVESGGGLVQAGGSLRLSCDASGSTFGYYTMVWYRPSPGKERELVAAISSSGGSTYYADSVKGRFTISRDNAKNTVYLQMYSLKPEDTAVYYCNAEYGFYRAGSRGEYWGQGTQVTVSS | low polyreactivity
18 | QVQLVESGGGLVQAGGSLRLSCDASGSTFRWYTMGWYRPAPGKEREVVATISRSGGSTYNADSVKGRFTISRDNAKNTVYLQMNSLKPEDTAVYYCNKLGVSTHSYKYYYWGQGTQVTVSS | high polyreactivity
19 | QVQLVESGGGLVQAGGSLRLSCDASGSTFSYYTMGWYRQAPGKERELVAAITGSGGRTYYADSVKGRFTISRDNAKNTVYLQMNSLKPEDSAVYYCAARLYTAADHYNYWGQGTQVTVSS | high polyreactivity
20 | QVQLVESGGGLVQAGGSLRLSCDASGSTFYPYVMGWYRQAPGKERELVARITWSGGSTYYADSVKGRFTISRDNAKNTVYLQMNSLKPEDTAVYYCAALRYVNLLAQAYEYWGQGTQVTVSS | high polyreactivity
21 | QVQLVESGGGLVQAGGSLRLSCDASGSTIDWYAMGWYRQAPGKERELVAGITISAGRTYYADSVKGRFTISRDNAKNTVYLQMNSLKPEDTAVYYCAADVYYYLDMDHWGQGTQVTVSS | low polyreactivity
22 | QVQLVESGGGLVQAGGSLRLSCDASGSTIPTYAMGWYRQAPGKERELVASISVTTGSTYYADSVKGRFTISRDNAKNTVYLNMKSLKPEDTAVYFCAKRTYSRKFRGSYNYWGQGTEVTVSS | high polyreactivity

Row | Sequence | polyreactivity (PSR sort gate)
23 | QVQLVESGGGLVQAGGSLRLSCGASGFIFKSYAMGWYRQATGKERELVAAFSRSGSSTYYADSVMGRFTISRDNAKNTVYLQMNSLKPEDTAVYYCAKKGYRFIHFGYDYWGQGTQVTVSS | high polyreactivity
24 | QVQLVESGGGLVQAGGSLRLSCGASGFIFLKNAMGWYRQAPGKARELVAAITRSGDITYYADSVKGRFTISRDNAKNTVYLKMNSLKPEDTAVYYCATTREFPSYDSWGQGTQVTVSS | low polyreactivity
25 | QVQLVESGGGLVQAGGSLRLSCGASGFTFPYYAMGWYIQAPGKERELVAAITSSGGSTYYADSVKGRFTISRDNAKNTVYLQMNSLNPEDTAVYYCAVDAYYYKWYDYWGQGTQVTVSS | high polyreactivity
26 | QVQLVESGGGLVQAGGSLRLSCGASGFTFYSYAMGWYRPARGKARELVATITKSGGNTYYADSVKGRFTISRDNAKNTVYLQMTSLKPVDTAVYYCAAATKVGRYKRKTVSYYYWCQGTQVTVSS | high polyreactivity
27 | QVQLVESGGGLVQAGGSLRLSCGASGLTFAYYAMRWYRQAPGKERELVAAISSSGRSTYYADSVKGRFTISRDNAKNTVYLQMNSLTEEDTAVSYCDKVGPWYYWERDYWGQCTQVTVSS | high polyreactivity
28 | QVQLVESGGGLVQAGGSLRLSCGASGNTINVNTMGWYRQGPGKERELVAAINSGDNTNYADSVKGRFTISRDNAKNTVYLQMNSLNPVDTAVYSCAAQDYARGVVPGRRAIGYWGQCTQVTVSS | high polyreactivity
29 | QVQLVESGGGLVQAGGSLRLSCGASGRIFRGYAMGWYRQGPGKERELVAAISRRGGSTYYADSVKGRFTISRDNAKNTVYLQMNSLKPVDTAVYYCNADGVHYVAYAGGYWGQGTQVTVSS | high polyreactivity
30 | QVQLVESGGGLVQAGGSLRLSCGASGRSSYVYAMGWYRQAPGKERELVAAITSSGGSTYYADSVKGRFTISRDNAKNTVYLQMNSLKPEDTAVYYCAAETYPVWGVAFYYWGQGTQVTVSS | high polyreactivity
31 | QVQLVESGGGLVQAGGSLRLSCGASGRTFKLYAMGWYRQAPAKERELVATIRRSGTRTYADSVKGRFTISRDNAKNTVYLQINSLKQEDTAVYYCAATTYAYVYHRYDYWGQGTQVTVSS | high polyreactivity
32 | QVQLVESGGGLVQAGGSLRLSCGASGSIFPDYAMGWYRQAPGKERELVAAITWSGGSTYYADSVKGRFTISRDNAKNTVNLQMNSLKPEDTAVYYCAAQLDPEWRGYFDQYGYDYWGQGTQVTVST | low polyreactivity
33 | QVQLVESGGGLVQAGGSLRLSCGASGSIRANMGSYRQAPGKETELVAVITTSGASTSYAVSVKGRFTISRDNAKNTVYLQMNRLKPEDTAVYYCAADIYYYPHTYYRDGYYYWGQGSQVTVSS | low polyreactivity
34 | QVQLVESGGGLVQAGGSLRLSCGASGSTFRLYALGWYRQAPGNEWAFVAAISFRGGSTYYADSVKGRFTISRDNAQNTVYLQMNSLKPEDTAVYYCAAEVGTGGVRTPRYEYWGQGTQVTVSS | high polyreactivity
35 | QVQLVESGGGLVQAGGSLRLSCGASGSTSKYYAMGWYRQAPGKERELVAAITWSDVSTYFADSVKGRFTISRDNAKHNVYLQMNSLKPEDTAVYYCNAGYDYWGQGTQVTVSS | low polyreactivity
36 | QVQLVESGGGLVQAGGSLRLSCGASGTIFDYYVMGWYRQAPVKERELVAAISWSGASTYYADSVKGRFTISRDNAKNTVYLQMNSLKPDDTAVYYCAADYGVNTLIDYDYWGQGTQVTVSS | low polyreactivity
37 | QVQLVESGGGLVQAGGSLRLSCPASGFNFLYYAMGWYRQAPGTEREFVAAIRSSGTTTSYADSVKGRFTISRDNAKNTVYLEMISLKPVDTAVYYCAAGYFGPQQYYYWGQGSQVTVSS | high polyreactivity
38 | QVQLVESGGGLVQAGGSLRLSCPASGFNFRYYAIGWYRQAPGKERQLVAAISRIGGSTNYADSVKGRFTISRDNAKNTVYLQLNSLKPEDTAVYYCAVAEGYSPAYLRDYWGQGSQVTVSS | high polyreactivity
39 | QVQLVESGGGLVQAGGSLRLSCPASGFTFKSYAMGWYRQAPGKERELVAAISRGGSTYYADSVKGRFTISRDNAKNTVYLQMNSLKPEDTAVYYCNKTRYSRSYYEYDYWGQGTQVTVSS | low polyreactivity
40 | QVQLVESGGGLVQAGGSLRLSCPASGFTFTIYAMGWYRQAPGKERELLATISGRAGRTYYADSVKGRFTISRDNAKNTVYLQMNSLKPEDTAVYDCAARVWYQGYKSMGYWGQGTQVTVSS | high polyreactivity
41 | QVQLVESGGGLVQAGGSLRLSCPASGFTFYGYAMGWYRQAPGKERELVAAIRYSGGSTYYADSVKGRFTISRDNAKNTVYLQMNSLKPEDTAVYYCNKRLIYYRGTYYSRRFDYWGQGTQVTVSS | high polyreactivity
42 | QVQLVESGGGLVQAGGSLRLSCPASGFTFYRYAMGWYRQSPGKEREFVAAITWSGGSTYYADSVKGRFTISRDNAKNTVYLQMNSLKPEDTAVYYCAAYVALDGTREYDYWGQGTQVTVSS | high polyreactivity
43 | QVQLVESGGGLVQAGGSLRLSCPASGGTFSFYTMGGYRQSPGKEREWVAAIDSTGRTNYADSVKGRFTISRDYPKNTVYLQMNRLIPEDTAVYYCAAVSPTYPYTFYRYNYWGQGTQVTVSS | low polyreactivity
